Experimental findings from article PMC5378721, “The Proteasomal ATPases Use a Slow but Highly Processive Strategy to Unfold Proteins” (Frontiers in Molecular Biosciences, 2017) are described below.

Series [1] addresses T1, PAN (Proteasome Activating Nucleotidase), with T20S (Methanocaldococcus jannaschii, UniProt Q58576).
T1 construct: homohexamer; with Proteasome subunit alpha (20S proteasome of Thermoplasma acidophilum, T20S); Proteasome subunit beta (20S proteasome of Thermoplasma acidophilum, T20S)
As to the kind of experiment: GFPssrA unfolding, loss of fluorescence […], ATPγS:ATP ratio series. It counts as biochemical. To be noted: competing with ATP, 2 mM total nucleotide, 0.2 μM GFPssrA, 400 nM T20S, 20 mM MgCl2, pH 7.5.

For series [2], the target named is PAN (Proteasome Activating Nucleotidase) (UniProt Q58576).
Substrate in the series “purified protein”: Nc1ncnc2c1ncn2[C@@H]1O[C@H](COP(=O)(O)OP(=O)(O)OP(=O)(O)O)[C@@H](O)[C@H]1O
In words: purified protein. Conditions: 0.2 μM GFPssrA, 400 nM T20S, 20 mM MgCl2, pH 7.5, ATP hydrolysis read-out, printed unit doubtful: ATP was varied 0–3 mM, so mM likely meant. Type of series: biochemical, Methanocaldococcus jannaschii.

T1 sequence (P25156 whole entry partner, one chain of several): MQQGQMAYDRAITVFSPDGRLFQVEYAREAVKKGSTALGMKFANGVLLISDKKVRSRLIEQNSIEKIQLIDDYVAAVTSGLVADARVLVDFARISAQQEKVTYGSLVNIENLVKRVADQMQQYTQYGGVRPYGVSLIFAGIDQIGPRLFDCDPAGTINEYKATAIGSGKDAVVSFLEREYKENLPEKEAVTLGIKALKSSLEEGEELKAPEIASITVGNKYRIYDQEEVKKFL
T1 sequence (P28061 9-211 partner, one chain of several): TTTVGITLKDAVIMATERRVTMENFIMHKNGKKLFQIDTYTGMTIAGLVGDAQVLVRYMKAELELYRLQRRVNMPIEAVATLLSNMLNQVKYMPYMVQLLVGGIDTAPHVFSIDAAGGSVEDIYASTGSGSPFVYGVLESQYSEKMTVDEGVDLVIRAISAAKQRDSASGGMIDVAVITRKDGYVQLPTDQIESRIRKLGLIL

As for `Nc1ncnc2c1ncn2[C@@H]1O[C@H](COP(=O)(O)OP(=O)(O)OP(O)(O)=S)[C@@H](O)[C@H]1O` [ATPγS], the “GFPssrA unfolding, loss of fluorescence 485/510, ATPγS:ATP ratio series” value in series [1] is listed as “as the ATPγS:ATP ratio increased, GFPssrA unfolding rate decreased”. For “GFPssrA (GFP with an unstructured ssrA tag)”, the Km for GFPssrA in ATP-dependent unfolding by PAN (steady-state loss of GFP fluorescence, ex/em 485/510; GFPssrA 0 to 10 μM, 50 nM PAN, 400 nM T20S, 2 mM ATP) in series [2] came to 0.187 µM.

B1: PAN (Proteasome Activating Nucleotidase), with T20S (Methanocaldococcus jannaschii DSM 2661) (protein)
chain: MVFEEFISTELKKEKKAFTEEFKEEKEINDNSNLKNDLLKEELQEKARIAELESRILKLELEKKELERENLQLMKENEILRRELDRMRVPPLIVGTVVDKVGERKVVVKSSTGPSFLVNVSHFVNPDDLAPGKRVCLNQQTLTVVDVLPENKDYRAKAMEVDERPNVRYEDIGGLEKQMQEIREVVELPLKHPELFEKVGIEPPKGILLYGPPGTGKTLLAKAVATETNATFIRVVGSELVKKFIGEGASLVKDIFKLAKEKAPSIIFIDEIDAIAAKRTDALTGGDREVQRTLMQLLAEMDGFDARGDVKIIGATNRPDILDPAILRPGRFDRIIEVPAPDEKGRLEILKIHTRKMNLAEDVNLEEIAKMTEGCVGAELKAICTEAGMNAIRELRDYVTMDDFRKAVEKIMEKKKVKVKEPAHLDVLYR
notes: homohexamer; with Proteasome subunit alpha (20S proteasome of Thermoplasma acidophilum, T20S); Proteasome subunit beta (20S proteasome of Thermoplasma acidophilum, T20S)
B1: the Km in the series “purified protein” worked out at 0.000397 ± 1.7e-05 mM.

In general, Km refers to the substrate concentration at which the rate is half of its maximum.
